Drawing on PMC3527528, this text covers stoichiometry N for 1 substance.

The target in the test is Ssl1 (S. sviceus laccase 1), small two-domain laccase from Streptomyces sviceus, without the twin-arginine signal peptide (Streptomyces sviceus). Description: SEC-MALS; Superdex 200 10/300 GL, 0.5 mL/min, 50 mM potassium phosphate pH 7.5; 100 µL of Ssl1 at 7.5 mg/mL injected; multi-angle static light scattering with refractometer. On the technique in general: SEC sorts molecules by how far they enter the pores of the column.

In the case of “Ssl1 (S. sviceus laccase 1), small two-domain laccase from Streptomyces sviceus, without the twin-arginine signal peptide (enzyme)”, the stoichiometry N (commonly a count of units in the complex or per binding partner) was 3.
